Patent US20180155451A1 (published 2018)

T1: FcγRIIa H (FcγRIIa type H, His at position 131), extracellular domain with C-terminal His tag (human, UniProt P12318 34-217)
T1 construct: extracellular domain; also called 2aH; FcgRIIa H; not shown: His tag at the C terminus
T1 sequence (looked up): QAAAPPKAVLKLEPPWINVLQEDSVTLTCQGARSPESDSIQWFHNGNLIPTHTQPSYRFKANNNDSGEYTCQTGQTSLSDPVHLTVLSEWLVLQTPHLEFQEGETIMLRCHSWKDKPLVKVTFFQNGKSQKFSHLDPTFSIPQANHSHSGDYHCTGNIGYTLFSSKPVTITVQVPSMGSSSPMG

T2: FcγRIIb, extracellular domain with C-terminal His tag (human, UniProt P31994 43-217)
T2 construct: extracellular domain; also called 2b; FcgRIIb; not shown: His tag at the C terminus
T2 sequence (looked up): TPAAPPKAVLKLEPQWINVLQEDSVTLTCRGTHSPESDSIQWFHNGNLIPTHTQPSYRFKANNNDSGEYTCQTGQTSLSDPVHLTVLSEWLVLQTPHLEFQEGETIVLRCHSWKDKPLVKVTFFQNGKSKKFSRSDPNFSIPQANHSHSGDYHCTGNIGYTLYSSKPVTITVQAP

T3: FcγRIIb extracellular domain with C-terminal His tag (human, UniProt P31994 43-217)
T3 construct: extracellular domain; Expressed in FreeStyle293 cells; used as analyte in Biacore; also called FcgRIIb; 2b; not shown: C-terminal His tag
T3 sequence (looked up): T2 sequence (looked up)

B1: GpH7-A5/GpH7-B3 variant H268_05P/GpL16-k0 (antibody, human IgG1, kappa)
heavy 1: not shown
heavy 2: not shown
light: DIVMTQSPLSLPVTPGEPASISCQASESLVHSNRNTYLHWYLQKPGQSPQLLIYKVSNRFSGVPDRFSGSGSGTDFTLKISRVEAEDVGVYYCSQNTHVPPTFGQGTKVEIERTVAAPSVFIFPPSDEQLKSGTASVVCLLNNFYPREAKVQWKVDNALQSGNSQESVTEQDSKDSTYSLSSTLTLSKADYEKHKVYACEVTHQGLSSPVTKSFNRGEC
notes: Heterodimerized IgG1 (He Ab); mutation only in the GpH7-B3 chain; also called He Ab H268P
B2: GpH7-A5/GpH7-B3 variant S298_08L/GpL16-k0 (antibody, human IgG1, kappa)
heavy 1: not shown
heavy 2: not shown
light: B1 light
notes: Heterodimerized IgG1 (He Ab); mutation only in the GpH7-B3 chain; also called He Ab S298L
B3: GpH7-A5/GpH7-B3 variant H268_03V/GpL16-k0 (antibody, human IgG1, kappa)
heavy 1: not shown
heavy 2: not shown
light: B1 light
notes: Heterodimerized IgG1 (He Ab); mutation only in the GpH7-B3 chain; also called He Ab H268V
B4: GpH7-A5/GpH7-B3 variant P271_08L/GpL16-k0 (antibody, human IgG1, kappa)
heavy 1: not shown
heavy 2: not shown
light: B1 light
notes: Heterodimerized IgG1 (He Ab); mutation only in the GpH7-B3 chain; also called He Ab P271L
B5: GpH7-A5/GpH7-B3 variant K326_05P/GpL16-k0 (antibody, human IgG1, kappa)
heavy 1: not shown
heavy 2: not shown
light: B1 light
notes: Heterodimerized IgG1 (He Ab); mutation only in the GpH7-B3 chain; also called He Ab K326P
B6: GpH7-A5/GpH7-B3 variant H268_20W/GpL16-k0 (antibody, human IgG1, kappa)
heavy 1: not shown
heavy 2: not shown
light: B1 light
notes: Heterodimerized IgG1 (He Ab); mutation only in the GpH7-B3 chain; also called He Ab H268W
B7: GpH7-A5/GpH7-B3 variant Y296_20W/GpL16-k0 (antibody, human IgG1, kappa)
heavy 1: not shown
heavy 2: not shown
light: B1 light
notes: Heterodimerized IgG1 (He Ab); mutation only in the GpH7-B3 chain; also called He Ab Y296W
B8: GpH7-A5/GpH7-B3 variant S267_19Q/GpL16-k0 (antibody, human IgG1, kappa)
heavy 1: not shown
heavy 2: not shown
light: B1 light
notes: Heterodimerized IgG1 (He Ab); mutation only in the GpH7-B3 chain; also called He Ab S267Q
B9: GpH7-A5/GpH7-B3 variant K326_04F/GpL16-k0 (antibody, human IgG1, kappa)
heavy 1: not shown
heavy 2: not shown
light: B1 light
notes: Heterodimerized IgG1 (He Ab); mutation only in the GpH7-B3 chain; also called He Ab K326F
B10: GpH7-A5/GpH7-B3 variant P271_10E/GpL16-k0 (antibody, human IgG1, kappa)
heavy 1: not shown
heavy 2: not shown
light: B1 light
notes: Heterodimerized IgG1 (He Ab); mutation only in the GpH7-B3 chain; also called He Ab P271E
B11: GpH7-A5/GpH7-B3 variant P271_09D/GpL16-k0 (antibody, human IgG1, kappa)
heavy 1: not shown
heavy 2: not shown
light: B1 light
notes: Heterodimerized IgG1 (He Ab); mutation only in the GpH7-B3 chain; also called He Ab P271D
B12: GpH7-A5/GpH7-B3 variant Y300_19Q/GpL16-k0 (antibody, human IgG1, kappa)
heavy 1: not shown
heavy 2: not shown
light: B1 light
notes: Heterodimerized IgG1 (He Ab); mutation only in the GpH7-B3 chain; also called He Ab Y300Q
B13: GpH7-A5/GpH7-B3 variant Y300_10E/GpL16-k0 (antibody, human IgG1, kappa)
heavy 1: not shown
heavy 2: not shown
light: B1 light
notes: Heterodimerized IgG1 (He Ab); mutation only in the GpH7-B3 chain; also called He Ab Y300E
B14: GpH7-A5/GpH7-B3 variant K326_03V/GpL16-k0 (antibody, human IgG1, kappa)
heavy 1: not shown
heavy 2: not shown
light: B1 light
notes: Heterodimerized IgG1 (He Ab); mutation only in the GpH7-B3 chain; also called He Ab K326V
B15: GpH7-A5/GpH7-B3 variant S298_06M/GpL16-k0 (antibody, human IgG1, kappa)
heavy 1: not shown
heavy 2: not shown
light: B1 light
notes: Heterodimerized IgG1 (He Ab); mutation only in the GpH7-B3 chain; also called He Ab S298M
B16: GpH7-A5/GpH7-B3 variant H268_01G/GpL16-k0 (antibody, human IgG1, kappa)
heavy 1: not shown
heavy 2: not shown
light: B1 light
notes: Heterodimerized IgG1 (He Ab); mutation only in the GpH7-B3 chain; also called He Ab H268G
B17: GpH7-A5/GpH7-B3 variant K326_08L/GpL16-k0 (antibody, human IgG1, kappa)
heavy 1: not shown
heavy 2: not shown
light: B1 light
notes: Heterodimerized IgG1 (He Ab); mutation only in the GpH7-B3 chain; also called He Ab K326L
B18: GpH7-A5/GpH7-B3 variant Y300_19Q/GpL16-k0 (He Ab) (antibody, human IgG1, kappa)
heavy 1: not shown
heavy 2: not shown
light: B1 light
notes: Substitution in one H chain only; position in EU numbering; also called Y300Q heterodimerized antibody

Biological target: T1, FcγRIIa H (FcγRIIa type H, His at …)
Test: SPR (Biacore), antibody captured on antigen-peptide chip, FcγR as analyte; GpH7-A5/GpH7-B3/GpL16-k0 = 100
Procedure: (§1) The heterodimerized antibodies He Abs in which one of the H chains was introduced with an alteration were assayed for their binding activities to each activating FcγR and inhibitory FcγR according to the method described in Example 4. […] The activating FcγRs in FIGS. 26, 27, 28, and 29 are FcγRIa, FcγRIIa (R), FcγRIIa (H), and FcγRIIIa, respectively.
(§2) Analysis of interaction between objective antibody and the FcγR was carried out using Biacore T100 (GE Healthcare). HBS-EP+ (GE Healthcare) was used as the running buffer, and the measurement temperature was set to 25° C. Chips produced by immobilizing the antigen peptide by the amine coupling method to a Series S Sencor Chip CM5 (GE Healthcare), or alternatively, chips produced by allowing preliminarily biotinylated antigen peptides to interact with and immobilize onto a Series S Sensor Chip SA (certified) (GE Healthcare) were used. Antibodies of interest were captured onto an antigen peptide-immobilized chip, and allowed to interact to each FcγR diluted with running buffer. To regenerate and repeatedly use the chip, the antibodies captured on the chip were washed off by reacting 10 mM glycine-HCl, pH 1.5.

First: B1
Second: B2
The “He/Con_2aH (relative binding activity)” value of the first is lower: 81.8 % of control for the first, 85 % of control for the second.

Compared with B3, B4 is lower in “He/Con_2aH (relative binding activity)” value: 99.2 % of control for the first, 86.7 % of control for the second.

Going from B5 to B6, the “He/Con_2aH (relative binding activity)” value falls from 98.8 % of control to 95.8 % of control.

Compared with B7, B8 is lower in “He/Con_2aH (relative binding activity)” value: 97.6 % of control for the first, 61.3 % of control for the second.

Compared with B9, B10 is lower in “He/Con_2aH (relative binding activity)” value: 97 % of control for the first, 63.1 % of control for the second.

Going from B11 to B12, the “He/Con_2aH (relative binding activity)” value rises from 70.1 % of control to 96.1 % of control.

Compared with B13, B14 is lower in “He/Con_2aH (relative binding activity)” value: 97.2 % of control for the first, 97 % of control for the second.

Going from B15 to B16, the “He/Con_2aH (relative binding activity)” value rises from 98.1 % of control to 99.2 % of control.

In the case of B17, the “He/Con_2aH (relative binding activity)” value is reported as 92.7 % of control.

Biological target: T2, FcγRIIb, extracellular domain with …
Test: as above
Procedure: as §1, §2

Going from B1 to B2, the “He/Con_2b (relative binding activity)” value falls from 116 % of control to 108 % of control.

First: B3
Second: B4
The “He/Con_2b (relative binding activity)” value of the first is higher: 114 % of control for the first, 103 % of control for the second.

First: B5
Second: B6
The “He/Con_2b (relative binding activity)” value of the first is higher: 126 % of control for the first, 111 % of control for the second.

Going from B7 to B8, the “He/Con_2b (relative binding activity)” value rises from 103 % of control to 218 % of control.

First: B9
Second: B10
The “He/Con_2b (relative binding activity)” value of the first is higher: 155 % of control for the first, 109 % of control for the second.

Compared with B11, B12 is lower in “He/Con_2b (relative binding activity)” value: 120 % of control for the first, 108 % of control for the second.

Going from B13 to B14, the “He/Con_2b (relative binding activity)” value rises from 134 % of control to 175 % of control.

Compared with B15, B16 is higher in “He/Con_2b (relative binding activity)” value: 102 % of control for the first, 144 % of control for the second.

For B17, the “He/Con_2b (relative binding activity)” value was 177 % of control.

Biological target: T3, FcγRIIb extracellular domain with …
Test: SPR (Biacore), antibody captured on antigen-peptide chip, FcgRIIb as analyte; binding relative to GpH7-A5/GpH7-B3/GpL16-k0 (HeCon Ab) = 100

In the case of B18, the He/Con_2b is reported as 108 % of control.
